Molecular target: free tubulin (bovine) (UniProt Q6B856)
Test: tubulin recruitment assay

Chain of UniProt Q6B856 (Q6B856 whole entry, looked up): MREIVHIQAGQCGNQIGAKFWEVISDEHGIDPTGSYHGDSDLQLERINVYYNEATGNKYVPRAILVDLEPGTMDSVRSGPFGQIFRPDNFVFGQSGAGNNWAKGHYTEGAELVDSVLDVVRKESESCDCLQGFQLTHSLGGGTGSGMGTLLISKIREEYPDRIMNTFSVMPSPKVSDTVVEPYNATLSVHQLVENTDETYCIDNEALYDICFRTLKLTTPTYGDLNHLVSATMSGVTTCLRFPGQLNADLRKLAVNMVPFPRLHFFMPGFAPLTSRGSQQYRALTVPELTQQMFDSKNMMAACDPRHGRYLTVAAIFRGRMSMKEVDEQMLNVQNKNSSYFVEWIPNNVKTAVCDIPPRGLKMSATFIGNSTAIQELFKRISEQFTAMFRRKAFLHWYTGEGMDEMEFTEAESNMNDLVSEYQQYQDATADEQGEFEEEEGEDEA

| Substance | percent of stabilised microtubules with recruited free tubulin | percent of pre-polymerised microtubules with recruited free tubulin |
| --- | --- | --- |
| MAP6d1-Δ2-35 (from UniProt Q14BB9 1-191) (natural protein) | 9% |  |
| MAP6d1 (from UniProt Q14BB9 1-191) (natural protein) |  | 57% |

Reference: publication doi:10.1101/2025.02.17.638590
